# Numbering of substitutions follows the chain as printed. In names and notes the source's numbering stands. Several values for one entry are separate records, joined by “and”; a condition that tells them apart may be missing. Equal entries are not always repeated. Entries after “also recorded” stand apart in the source; their conditions may differ.
# B1: E214G/S237C: glycine for glutamate at position 214 and cysteine for serine at position 237 of SEQ ID No. 2 (protein)
# chain: MSVLISGASGYIAKHIVRVLLEQNYKVIGTVRSQDKADKLLKQYNNPNLSYEIVPEIANLDAFDDIFKKHGKEIKYVIHAASPVNFGAKDLEKDLVIPAINGTKNMFEAIKKYAPDTVERVVMTASYASIMTPHRQNDPTLTLDEETWNPVTEENAYENVFTAYCASKTFAEKEAWKFVKENSDAVKFKLTTIHPSFVFGPQNFDEDVTKKLNGTCEIINGLLHAPFDTKVEKTHFCQFIDVRDVAKTHVLGFQKDELINQRLLLCNGAFSQQDIVNVFNEDFPELKGQFPPEDKDTDLNKGVTGCKIDNEKTKKLLAFEFTPFHKTIHDTVYQILHKEGRV
# modifications: Protein translated from synthetic DNA
# B2: E214Q/S237C: glutamine for glutamate at position 214 and cysteine for serine at position 237 of SEQ ID No. 2 (protein)
# chain: B1 chain with G214Q
# modifications: Protein translated from synthetic DNA
# B3: WT: wild type alcohol dehydrogenase KpADH, amino acid sequence SEQ ID No. 2 (protein)
# chain: B1 chain with G214E, C237S
# modifications: Protein translated from synthetic DNA
# Legend:
# Type in all cases: biochemical
# [1] = Stereoselectivity (ee) of CPMK reduction, chiral liquid chromatography
# Description: (§1) In an embodiment of the present disclosure, a chromatographic analysis method is as follows: 100 μL of reactant liquid is taken, 500 μL of ethyl acetate is added, shaking is performed for 1-2 min, centrifugation is performed at 12,000 rpm for 2-5 min, supernatant liquid is taken into a centrifuge tube, after an organic phase naturally volatilizes completely, 500 μL of chromatographically pure ethanol is added, and chiral liquid chromatography and gas chromatography are performed to analyze the transformation rate and the ee value.
# (§2) Method for determining optical purity ee:
# (§3) As: molar concentration of (S)-CPMA obtained by liquid chromatography; and AR: molar concentration of (R)-CPMA obtained by liquid chromatography.
# [2] = Substrate specificity, specific activity
# Description: (§4) Adopting a total reaction system of 200 μL, including: 1.0 mM NADPH, 1.0 mM substrate CPMK and sodium phosphate buffer (PBS, 100 mM, pH 7.0), fully and evenly mixing, maintaining at 30° C. for 2 min, adding an appropriate amount of enzyme solution, and detecting the change in light absorption at 340 nm.
# (§5) The enzyme activity was calculated by the following formula: Enzyme activity (U)=EW×V×10^3/(6220×I);
# (§6) in the formula, EW is the change in absorbance at 340 nm in 1 min; V is the volume of a reaction solution in mL; 6220 is the molar extinction coefficient of NADPH in L/mol·cm); and 1 is the optical path distance in cm. One activity unit (U) corresponds to the amount of enzyme required to catalyze the oxidation of 1 μmol NADPH per minute under the above conditions.
# (§7) The reduction on prochiral carbonyl compounds by the alcohol dehydrogenase mutants obtained in Example 3 was studied. The pro-chiral carbonyl compounds include (4-chlorophenyl)-(pyridin-2-yl)-methanone (CPMK), phenyl-(pyridin-2-yl)-methanone, (4-chlorophenyl)-(phenyl)-methanone, (4-bromophenyl)(phenyl)methanone, (4-fluorophenyl)(phenyl)methanone, (4-methoxyphenyl)-(phenyl)-methanone, (4-nitrophenyl)(phenyl)methanone, 1-(pyridin-2-yl)ethanone, acetophenone, 4′-Chloroacetophenone, 4-chlorophenacyl chloride, ethyl 2-oxo-4-phenylbutanoate (OPBE), ethyl 4-chloro-3-oxobutanoate, and methyl 2-oxo-2-phenylacetate.
# [3] = Stereoselectivity on different substrates; conditions: for Stereoselectivity (ee): configuration in brackets
# Description: as §1, §2, §3, §7
# All the products above were recrystallized from ethyl acetate and gave more than 99.9% optical purity.
# [4] = Stereoselectivity on different substrates; conditions: configuration in brackets
# Description: as §1, §2, §3, §7
# [5] = Asymmetric reduction in 20 mL biocatalytic system, conversion
# Description: as §1
# The pure (R)-CPMA were recrystallized from ethyl acetate at 4° C. and gave 99.9% optical purity. […] Besides, the conversion cannot reach 100% with 24 h in the asymmetric reduction of (4-bromophenyl)-(phenyl)-methanone and p-nitrobenzophenone due to the low enzyme activity.
# [6] = Kinetic analysis of alcohol dehydrogenase and mutants (NADPH oxidation, 340 nm, double reciprocal curve); conditions: substrate CPMK
# Description: as §4, §5, §6
# A column used for purification was a nickel affinity column HisTrap FF crude, and purification was achieved through affinity chromatography using a histidine tag on recombinant protein. The nickel column was equilibrated with a solution A first, a crude enzyme solution was loaded, a penetrating peak was further eluted off using the solution A, and after equilibrium, a solution B (20 mM sodium phosphate, 500 mM NaCl, and 1000 mM imidazole, pH 7.4) was used for gradient elution to elute off the recombinant protein bound to the nickel column, so as to obtain the recombinant alcohol dehydrogenase mutant. The purified protein was subjected to activity measurement (CPMK as substrate, and NADPH as coenzyme) and SDS-PAGE analysis. […] The purified alcohol dehydrogenase protein was then replaced into a Tris-HCl (100 mM, pH 7.0) buffer using a Hi Trap Desalting column (GE Healthcare).
# The activity of KpADH at different substrate concentrations and coenzyme concentrations was determined, and a double reciprocal curve was made based on the reciprocal of activity and substrate concentration to calculate kinetic parameters.
# [7] = product configuration in brackets
# [8] = substrate [drawing 6], 4-chlorophenacyl chloride
# [9] = substrate [drawing 9], ethyl 4-chloro-3-oxobutanoate
# [10] = substrate [drawing 10], acetophenone
# [11] = substrate [drawing 11], 4-chloroacetophenone
# [12] = substrate [drawing 12], 4-chlorobenzoyl chloride
# [13] = substrate [drawing 16], (4-bromophenyl)-(phenyl)-methanone
# [14] = substrate [drawing 17], p-nitrobenzophenone
# [15] = substrate [drawing 14], likely CPMK (values partly match Table 4)
molecule,measurement,setting,value
B1,configuration of product / stereoselectivity in words,[1],inversion from the R configuration to the S configuration; also recorded: (S)-CPMA
same,"ee value, (S)-CPMA",[1]; S configuration product,75.5%
same,e.e.,[1]; [7],75.5 (S)
same,specific activity,[2]; substrate [drawing 1],0.15 U/mg
same,specific activity,[2]; substrate [drawing 2],0.07 U/mg
same,specific activity,[2]; substrate [drawing 3],0.12 U/mg
same,specific activity,[2]; substrate [drawing 4],3.10 U/mg
same,specific activity,[2]; substrate [drawing 5],4.84 U/mg
same,specific activity,[2]; [8],9.81 U/mg
same,specific activity,[2]; substrate [drawing 7],10.26 U/mg
same,specific activity,[2]; substrate [drawing 8],21.25 U/mg
same,specific activity,[2]; [9],1.55 U/mg
same,Stereoselectivity (ee),[3]; [10],99.5 (R)
same,Stereoselectivity (ee),[3]; [11],93.8 (R)
same,Stereoselectivity (ee),[3]; [12],96.2 (R)
same,Stereoselectivity (ee),[3]; [13],91.4 (R)
same,Stereoselectivity (ee),[3]; [14],93.3 (R)
same,ee value,"[3]; substrate acetophenone, R configuration products",99.5%
same,Stereoselectivity (ee),[4]; substrate [drawing 13],51.9 (R)
same,Stereoselectivity (ee),[4]; [15],43.2 (S)
same,Stereoselectivity (ee),[4]; substrate [drawing 15],86.2 (R)
same,Stereoselectivity (ee),[4]; substrate [drawing 18],93.8 (S)
same,Conversion rate,"[5]; acetophenone 100 mM, 1 h",42%
same,Conversion rate,"[5]; acetophenone 100 mM, 2 h",53%
same,Conversion rate,"[5]; acetophenone 100 mM, 3 h",65%
same,Conversion rate,"[5]; acetophenone 100 mM, 4 h",77%
same,Conversion rate,"[5]; acetophenone 100 mM, 6 h",95%
same,Conversion rate,"[5]; acetophenone 100 mM, 8 h",99.0%
same,Conversion rate,"[5]; acetophenone 100 mM, 12 h",>99.9%
same,Conversion rate,"[5]; acetophenone 100 mM, 24 h",>99.9%
same,Conversion rate,"[5]; acetophenone 200 mM, 1 h",35%
same,Conversion rate,"[5]; acetophenone 200 mM, 2 h",49%
same,Conversion rate,"[5]; acetophenone 200 mM, 3 h",60%
same,Conversion rate,"[5]; acetophenone 200 mM, 4 h",72%
same,Conversion rate,"[5]; acetophenone 200 mM, 6 h",85.9%
same,Conversion rate,"[5]; acetophenone 200 mM, 8 h",93.6%
same,Conversion rate,"[5]; acetophenone 200 mM, 12 h",99.2%
same,Conversion rate,"[5]; acetophenone 200 mM, 24 h",99.7%
same,Conversion rate,"[5]; acetophenone 500 mM, 1 h",20.9%
same,Conversion rate,"[5]; acetophenone 500 mM, 2 h",34.5%
same,Conversion rate,"[5]; acetophenone 500 mM, 3 h",49.6%
same,Conversion rate,"[5]; acetophenone 500 mM, 4 h",62.6%
same,Conversion rate,"[5]; acetophenone 500 mM, 6 h",77.9%
same,Conversion rate,"[5]; acetophenone 500 mM, 8 h",88.6%
same,Conversion rate,"[5]; acetophenone 500 mM, 12 h",92.9%
same,Conversion rate,"[5]; acetophenone 500 mM, 24 h",99.2%
B2,Kcat,[6],7.06 ± 0.63 s⁻¹
same,Km,[6],550 ± 20 µM
same,Vmax,[6],10.59 ± 0.16 µM/min/mg
same,configuration of product / stereoselectivity in words,[1],inversion from the R configuration to the S configuration; also recorded: (S)-CPMA
same,e.e.,[1]; [7],44.6 (S)
same,specific activity,[2]; substrate [drawing 1],0.22 U/mg
same,specific activity,[2]; substrate [drawing 2],0.12 U/mg
same,specific activity,[2]; substrate [drawing 3],0.09 U/mg
same,specific activity,[2]; substrate [drawing 4],5.65 U/mg
same,specific activity,[2]; substrate [drawing 5],3.65 U/mg
same,specific activity,[2]; [8],10.25 U/mg
same,specific activity,[2]; substrate [drawing 7],9.89 U/mg
same,specific activity,[2]; substrate [drawing 8],22.65 U/mg
same,specific activity,[2]; [9],2.65 U/mg
same,Stereoselectivity (ee),[3]; [10],96.5 (R)
same,Stereoselectivity (ee),[3]; [11],93.5 (R)
same,Stereoselectivity (ee),[3]; [12],97.6 (R)
same,Stereoselectivity (ee),[3]; [13],92.6 (R)
same,Stereoselectivity (ee),[3]; [14],93.3 (R)
same,Stereoselectivity (ee),[4]; substrate [drawing 13],56.6 (R)
same,Stereoselectivity (ee),[4]; [15],44.6 (S)
same,Stereoselectivity (ee),[4]; substrate [drawing 15],88.6 (R)
same,Stereoselectivity (ee),[4]; substrate [drawing 18],90.6 (R)
B3,"ee value, (R)-CPMA",[1]; R configuration product,82% and 81.7%
same,e.e.,[1]; [7],81.7 (R)
same,ee %,[1]; [7],81.7 (R) %
same,specific activity,[2]; substrate [drawing 1],0.99 U/mg
same,specific activity,[2]; substrate [drawing 2],1.34 U/mg
same,specific activity,[2]; substrate [drawing 3],4.15 U/mg
same,specific activity,[2]; substrate [drawing 4],4.07 U/mg
same,specific activity,[2]; substrate [drawing 5],12.09 U/mg
same,specific activity,[2]; [8],20.67 U/mg
same,specific activity,[2]; substrate [drawing 7],27.02 U/mg
same,specific activity,[2]; substrate [drawing 8],39.77 U/mg
same,specific activity,[2]; [9],41.84 U/mg
same,Stereoselectivity (ee),[3]; [10],88.6 (R)
same,Stereoselectivity (ee),[3]; [11],92.9 (R)
same,Stereoselectivity (ee),[3]; [12],95.2 (R)
same,Stereoselectivity (ee),[3]; [13],70.5 (S)
same,Stereoselectivity (ee),[3]; [14],37.6 (R)
same,Stereoselectivity (ee),[4]; substrate [drawing 13],27.5 (R)
same,Stereoselectivity (ee),[4]; [15],83.7 (R)
same,Stereoselectivity (ee),[4]; substrate [drawing 15],52.4 (S)
same,Stereoselectivity (ee),[4]; substrate [drawing 18],27.3 (R)
same,ee in asymmetric synthesis of (R)-CPMA,"[5]; 20 mL biocatalytic system, 30° C., pH 7.5",82%
same,Conversion rate,"[5]; CPMK 100 mM, 1 h",50.5%
same,Conversion rate,"[5]; CPMK 100 mM, 2 h",65.5%
same,Conversion rate,"[5]; CPMK 100 mM, 3 h",79.5%
same,Conversion rate,"[5]; CPMK 100 mM, 4 h",88.8%
same,Conversion rate,"[5]; CPMK 100 mM, 6 h",98.5%
same,Conversion rate,"[5]; CPMK 100 mM, 8 h",>99.9%
same,Conversion rate,"[5]; CPMK 100 mM, 12 h",>99.9%
same,Conversion rate,"[5]; CPMK 100 mM, 24 h",>99.9%
same,Conversion rate,"[5]; CPMK 200 mM, 1 h",35.6%
same,Conversion rate,"[5]; CPMK 200 mM, 2 h",46.9%
same,Conversion rate,"[5]; CPMK 200 mM, 3 h",62.0%
same,Conversion rate,"[5]; CPMK 200 mM, 4 h",75.5%
same,Conversion rate,"[5]; CPMK 200 mM, 6 h",95.6%
same,Conversion rate,"[5]; CPMK 200 mM, 8 h",98.8%
same,Conversion rate,"[5]; CPMK 200 mM, 12 h",99.4%
same,Conversion rate,"[5]; CPMK 200 mM, 24 h",99.7%
same,Conversion rate,"[5]; CPMK 500 mM, 1 h",22.5%
same,Conversion rate,"[5]; CPMK 500 mM, 2 h",30%
same,Conversion rate,"[5]; CPMK 500 mM, 3 h",55.6%
same,Conversion rate,"[5]; CPMK 500 mM, 4 h",66.5%
same,Conversion rate,"[5]; CPMK 500 mM, 6 h",80.2%
same,Conversion rate,"[5]; CPMK 500 mM, 8 h",93.2%
same,Conversion rate,"[5]; CPMK 500 mM, 12 h",95.6%
same,Conversion rate,"[5]; CPMK 500 mM, 24 h",99.2%
